According to PMC6829457, “Light-Regulation of Tryptophan Synthase by Combining Protein Design and Enzymology” (International Journal of Molecular Sciences, 2019):

Target: T1, wild-type TrpB, beta subunit of tryptophan synthase from Salmonella typhimurium (Salmonella typhimurium, UniProt P0A2K1 1-397)
T1 construct: TrpB (tryptophan synthase beta chain), Salmonella typhimurium; it carries pyridoxal phosphate as internal aldimine on bK87
T1 sequence: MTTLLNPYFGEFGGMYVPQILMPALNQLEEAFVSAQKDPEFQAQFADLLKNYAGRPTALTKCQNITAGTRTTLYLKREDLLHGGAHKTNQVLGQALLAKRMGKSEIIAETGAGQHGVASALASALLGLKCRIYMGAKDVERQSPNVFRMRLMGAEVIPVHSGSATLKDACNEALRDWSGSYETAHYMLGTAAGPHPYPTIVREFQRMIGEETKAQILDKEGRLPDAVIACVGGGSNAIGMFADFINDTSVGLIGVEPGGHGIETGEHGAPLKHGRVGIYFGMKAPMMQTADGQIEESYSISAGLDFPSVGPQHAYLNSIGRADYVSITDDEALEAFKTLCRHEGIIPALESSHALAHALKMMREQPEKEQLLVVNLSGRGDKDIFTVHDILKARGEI
Test: SEC
Settings: both partners purified

B1: wild-type TrpA, alpha subunit of tryptophan synthase from Salmonella typhimurium (enzyme, UniProt P00929 1-268, looked up)
chain: MERYENLFAQLNDRREGAFVPFVTLGDPGIEQSLKIIDTLIDAGADALELGVPFSDPLADGPTIQNANLRAFAAGVTPAQCFEMLALIREKHPTIPIGLLMYANLVFNNGIDAFYARCEQVGVDSVLVADVPVEESAPFRQAALRHNIAPIFICPPNADDDLLRQVASYGRGYTYLLSRSGVTGAENRGALPLHHLIEKLKEYHAAPALQGFGISSPEQVSAAVRAGAAGAISGSAIVKIIEKNLASPKQMLAELRSFVSAMKAASRA
notes: TrpA (tryptophan synthase alpha chain), Salmonella typhimurium
binding result: binds
